Data on one substance can be found in patent US12371725.

This data set relates to Cre recombinase (Bacteriophage P1?). Nature of the data set: cleavage_in_vitro. The note with it: 73 nM Cre, 37 C, 30 min; approximate value; ethidium bromide inhibits.

Turning to “pLoxFL BamHI digest (linear, two loxP sites)”, the activity (% recombination) stood at 74.
